Literature values in article PMC11638072.

Molecular target: Trigger factor (Escherichia coli) (UniProt P0A850)

Trigger factor, sequence (P0A850 whole entry): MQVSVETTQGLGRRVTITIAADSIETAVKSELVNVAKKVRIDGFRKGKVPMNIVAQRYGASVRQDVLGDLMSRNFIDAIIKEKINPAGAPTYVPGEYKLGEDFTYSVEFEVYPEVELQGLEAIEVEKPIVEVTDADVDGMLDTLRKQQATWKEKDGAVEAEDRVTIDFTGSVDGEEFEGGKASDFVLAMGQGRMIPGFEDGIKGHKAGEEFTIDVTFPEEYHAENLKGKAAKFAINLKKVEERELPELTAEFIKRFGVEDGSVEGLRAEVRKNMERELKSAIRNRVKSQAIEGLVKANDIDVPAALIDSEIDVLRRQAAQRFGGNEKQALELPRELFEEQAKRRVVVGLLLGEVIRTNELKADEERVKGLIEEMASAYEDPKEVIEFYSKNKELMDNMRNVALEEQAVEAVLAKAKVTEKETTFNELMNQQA

Trigger factor (from UniProt P0A850)
Kd: 1 µM
